In general, stoichiometry N refers to the number of molecules, sites or subunits per partner or assembly.

These results are taken from paper PMC2916701 (Molecular cell, 2010).

Data set [1] deals with the molecule itself. As to the kind of experiment: AUC.
Data set [2] concerns the molecule itself. The experiment in a line: negative stain electron microscopy.

Several values for one entry are separate records, joined by “and”; a condition that tells them apart may be missing. Equal entries are not always repeated.

B1: hyperphosphorylated Cdc15-TAP (natural protein, S. pombe, UniProt Q09822 1-927, looked up)
chain: MEVNGVSQSEAAPYVTKSSVKFRDNFWGSEDAGMDALMSRTKSSLSVLESIDEFYAKRASIEREYASKLQELAASSADIPEVGSTLNNILSMRTETGSMAKAHEEVSQQINTELRNKIREYIDQTEQQKVVAANAIEELYQKKTALEIDLSEKKDAYEYSCNKLNSYMRQTKKMTGRELDKYNLKIRQAALAVKKMDAEYRETNELLLTVTREWIDRWTEVCDAFQHIEEYRLEFLKTNMWAYANIISTACVKDDESCEKIRLTLENTNIDEDITQMIQNEGTGTTIPPLPEFNDYFKENGLNYDIDQLISKAPSYPYSSSRPSASASLASSPTRSAFRPKTSETVSSEVVSSPPTSPLHSPVKPVSNEQVEQVTEVELSIPVPSIQEAESQKPVLTGSSMRRPSVTSPTFEVAARPLTSMDVRSSHNAETEVQAIPAATDISPEVKEGKNSENAITKDNDDIILSSQLQPTATGSRSSRLSFSRHGHGSQTSLGSIKRKSIMERMGRPTSPFMGSSFSNMGSRSTSPTKEGFASNQHATGASVQSDELEDIDPRANVVLNVGPNMLSVGEAPVESTSKEEDKDVPDPIANAMAELSSSMRRRQSTSVDDEAPVSLSKTSSSTRLNGLGYHSRNTSIASDIDGVPKKSTLGAPPAAHTSAQMQRMSNSFASQTKQVFGEQRTENSARESLRHSRSNMSRSPSPMLSRRSSTLRPSFERSASSLSVRQSDVVSPAPSTRARGQSVSGQQRPSSSMSLYGEYNKSQPQLSMQRSVSPNPLGPNRRSSSVLQSQKSTSSNTSNRNNGGYSGSRPSSEMGHRYGSMSGRSMRQVSQRSTSRARSPEPTNRNSVQSKNVDPRATFTAEGEPILGYVIALYDYQAQIPEEISFQKGDTLMVLRTQEDGWWDGEIINVPNSKRGLFPSNFVQTV
modifications: hyperphosphorylated at many sites (sites not given; Supp. Table 1)
Consider B1, for which the “stoichiometry N” value in data set [1] was 2 and 4.

B2: His6-Cdc15(F-BAR) (amino acids 19-295) (domain or fragment, S. pombe, UniProt Q09822 19-295, looked up)
chain: SVKFRDNFWGSEDAGMDALMSRTKSSLSVLESIDEFYAKRASIEREYASKLQELAASSADIPEVGSTLNNILSMRTETGSMAKAHEEVSQQINTELRNKIREYIDQTEQQKVVAANAIEELYQKKTALEIDLSEKKDAYEYSCNKLNSYMRQTKKMTGRELDKYNLKIRQAALAVKKMDAEYRETNELLLTVTREWIDRWTEVCDAFQHIEEYRLEFLKTNMWAYANIISTACVKDDESCEKIRLTLENTNIDEDITQMIQNEGTGTTIPPLPEFND
Take B2: in data set [2], the binding result is reported as “binds”.
